# From paper PMC3643934, “Identification and Characterization of the Direct Interaction between Methotrexate (MTX) and High-Mobility Group Box 1 (HMGB1) Protein” (PLoS ONE, 2013)
# B1: Bj protein (amino acid residues F88-K181 of HMGB1) (domain or fragment)
# chain: FKDPNAPKRPPSAFFLFCSEYRPKIKGEHPGLSIGDVAKKLGEMWNNTAADDKQPYEKKAAKLKEKYEKDIAAYRAKGKPDAAKKGVVKAEKSK
# modifications: Paper numbering starts at G1 (initiator Met removed), so entry number = paper number + 1 (F88-K181 -> 89-182; D157 -> D158; Y161 -> Y162). N-terminal 6xHis tag from pTrcHis omitted; expressed in E. …
# Assays:
# Settings in all cases: both partners purified
# [1] = molecular target: T1, extracellular domain of RAGE (M1-A344) (UniProt Q15109 23-344); assay: SPR; same set-up, no MTX; equilibrium responses (Req), concentration-response curve and Lineweaver-Burk plot
# T1 construct: signal peptide in the construct; receptor for advanced glycation end products (RAGE), extracellular domain, M1-A344 as printed; The results call it 'chimeric RAGE' without saying what it is fused to; the R&D Systems product with these limits is probably the human RAGE Fc chimera (surmise), in which the signal peptide would be removed on secretion; also called chimeric RAGE; receptor for advanced …
# T1 sequence (Q15109 23-344): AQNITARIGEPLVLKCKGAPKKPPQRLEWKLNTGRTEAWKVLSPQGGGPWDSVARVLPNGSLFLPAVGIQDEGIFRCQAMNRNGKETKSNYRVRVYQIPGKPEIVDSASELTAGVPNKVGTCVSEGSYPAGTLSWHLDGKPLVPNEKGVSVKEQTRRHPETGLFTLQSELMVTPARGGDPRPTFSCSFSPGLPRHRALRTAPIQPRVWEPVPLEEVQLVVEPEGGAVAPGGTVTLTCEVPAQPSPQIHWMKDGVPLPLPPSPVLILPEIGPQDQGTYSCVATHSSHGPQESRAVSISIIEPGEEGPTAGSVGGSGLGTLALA
# [2] = molecular target: T1, extracellular domain of RAGE (M1-A344); assay: SPR; Biacore 3000; RAGE immobilised on a CM5 chip by amine coupling up to 5000 RU; Bj 0.31-10 µM injected at 30 µl/min, 120 s association and 120 s dissociation; PBS, 25°C; no MTX; kinetic analysis by global fitting
# [3] = molecular target: T1, extracellular domain of RAGE (M1-A344); assay: SPR; same set-up, Bj 0.31-10 µM injected with 1 mM MTX; equilibrium responses (Req), Lineweaver-Burk plot, noncompetitive inhibition model
binder,measurement,setting,value
B1,Kd,[1],1.35 µM
same,Kd,[2],3.71 ± 1.68 µM
same,koff,[2],0.00052 ± 0.25 s⁻¹
same,kon,[2],150 ± 0.01 M⁻¹ s⁻¹
same,Kd,[3],1.39 µM
